Assay results published in patent US20190062383A1.

Experiments:
human Kv1.1 (human) [1] = target: human Kv1.1 (human) (UniProt Q09470)
human Kv1.3 (human) [2] = target: human Kv1.3 (human) (UniProt P22001)
human Kv1.3 (human) [3] = target: human Kv1.3 (human) (UniProt P22001); experiment: cell-based or functional assay
human Kv1.1 (human) [4] = target: human Kv1.1 (human) (UniProt Q09470); experiment: cell-based or functional assay

Sequence of human Kv1.3 (human) (P22001 whole entry): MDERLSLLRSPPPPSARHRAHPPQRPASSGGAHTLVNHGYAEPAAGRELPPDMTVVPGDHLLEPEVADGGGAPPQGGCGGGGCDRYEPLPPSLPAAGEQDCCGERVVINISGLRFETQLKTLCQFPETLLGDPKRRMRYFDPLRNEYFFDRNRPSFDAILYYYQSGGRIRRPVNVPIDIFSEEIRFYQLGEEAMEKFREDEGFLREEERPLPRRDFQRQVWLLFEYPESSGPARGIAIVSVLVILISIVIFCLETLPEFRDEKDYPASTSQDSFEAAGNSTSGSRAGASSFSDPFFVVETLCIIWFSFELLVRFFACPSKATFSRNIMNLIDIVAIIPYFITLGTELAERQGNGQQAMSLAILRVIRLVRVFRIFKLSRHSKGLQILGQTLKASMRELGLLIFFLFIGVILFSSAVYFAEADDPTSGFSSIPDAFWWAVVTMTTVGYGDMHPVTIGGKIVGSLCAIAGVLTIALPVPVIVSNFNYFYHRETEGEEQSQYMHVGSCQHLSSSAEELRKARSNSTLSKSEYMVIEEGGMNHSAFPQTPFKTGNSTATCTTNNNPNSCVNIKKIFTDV
Sequence of human Kv1.1 (human) (Q09470 whole entry): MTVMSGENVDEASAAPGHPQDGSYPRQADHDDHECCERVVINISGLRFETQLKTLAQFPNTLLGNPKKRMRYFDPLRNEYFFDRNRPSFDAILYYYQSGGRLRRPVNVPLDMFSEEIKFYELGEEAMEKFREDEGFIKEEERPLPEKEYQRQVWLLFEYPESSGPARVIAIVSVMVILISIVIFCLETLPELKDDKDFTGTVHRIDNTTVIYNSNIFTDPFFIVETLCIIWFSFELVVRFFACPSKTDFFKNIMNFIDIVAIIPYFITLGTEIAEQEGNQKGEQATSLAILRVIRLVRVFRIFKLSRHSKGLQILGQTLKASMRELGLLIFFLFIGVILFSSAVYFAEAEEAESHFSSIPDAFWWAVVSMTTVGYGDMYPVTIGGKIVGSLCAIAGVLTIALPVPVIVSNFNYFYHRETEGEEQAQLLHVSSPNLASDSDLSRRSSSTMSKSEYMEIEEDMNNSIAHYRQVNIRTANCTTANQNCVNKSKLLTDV

Substance | thallium flux KV1.1 IC50 (human Kv1.1 (human) [1]) [nM] | Kv1.1 IC50, whole-cell patch clamp (human Kv1.1 (human) [4]) [nM] | Kv1.3 IC50, whole-cell patch clamp (human Kv1.3 (human) [3]) [nM] | also measured
KV1C2 (OdK2-Fc fusion) | > 1000 | – | – | –
KV1N2 (OsK1-Fc fusion) | 0.1 | 2 | – | thallium flux KV1.3 IC50 (human Kv1.3 (human) [2]): 0.03 nM; Kv1.3 IC50, patch clamp (human Kv1.3 (human) [3]): 0.3 nM; Kv1.1 IC50, patch clamp (human Kv1.1 (human) [4]): 2 nM
wild type OdK2 peptide | – | – | 0.1 | –
wild type OsK1 peptide | – | 0.21 | 0.01 | CD4+ T cell inhibition IC50 (human Kv1.3 (human) [3]): 0.03 nM; CD8+ T cell inhibition IC50 (human Kv1.3 (human) [3]): 0.03 nM
